Source: paper PMC3169405

Biological target: Bartonella henselae Nudix hydrolase BH02020 (Bh-MutT) (Bartonella henselae strain Houston-1)
Assay: SEC; Superdex75 size-exclusion column, retention time 68 min; 21-residue N-terminal tag present

Bartonella henselae Nudix hydrolase BH02020 (Bh-MutT) (enzyme)
stoichiometry N: 2
